Measurements: PMC3039075 (Nitric oxide : biology and chemistry / official journal of …, 2010)

Molecular target: the molecule itself
Assay: non-reducing SDS-PAGE and Western blot

B1: matrix metalloproteinase-9 (MMP-9) (enzyme)
chain: not shown
stoichiometry N: 2
